Data reported in US20180230469A1, “METHOD OF TREATING PAIN WITH AN ANTIBODY AGAINST NETRIN-4, UNC5B OR NEOGENIN” (OSAKA UNIVERSITY, priority 2013, published 2018).
Entries after “also recorded” stand apart in the source; their conditions may differ.

Tests used:
SHP2 = target: T1, SHP2 (Rattus norvegicus, UniProt P41499); assay: von Frey filament test after intrathecal netrin-4 mixed with SHP inhibitor; format: in vivo; settings: inhibitor 1 mM mixed with netrin-4 40 ng/μL, 10 μL intrathecal; for change in withdrawal threshold after administration of mixture with netrin-4: 12, 24 and 48 hours; for degree of reduction in withdrawal threshold at 24 hours after administration: vs netrin-4 alone
T1 construct: SHP2 is expressed in the neurons of the dorsal horn of the spinal cord; from tissue; host or cells: spinal cord of living rats (in vivo, intrathecal administration)
T1 sequence (P41499 1-593): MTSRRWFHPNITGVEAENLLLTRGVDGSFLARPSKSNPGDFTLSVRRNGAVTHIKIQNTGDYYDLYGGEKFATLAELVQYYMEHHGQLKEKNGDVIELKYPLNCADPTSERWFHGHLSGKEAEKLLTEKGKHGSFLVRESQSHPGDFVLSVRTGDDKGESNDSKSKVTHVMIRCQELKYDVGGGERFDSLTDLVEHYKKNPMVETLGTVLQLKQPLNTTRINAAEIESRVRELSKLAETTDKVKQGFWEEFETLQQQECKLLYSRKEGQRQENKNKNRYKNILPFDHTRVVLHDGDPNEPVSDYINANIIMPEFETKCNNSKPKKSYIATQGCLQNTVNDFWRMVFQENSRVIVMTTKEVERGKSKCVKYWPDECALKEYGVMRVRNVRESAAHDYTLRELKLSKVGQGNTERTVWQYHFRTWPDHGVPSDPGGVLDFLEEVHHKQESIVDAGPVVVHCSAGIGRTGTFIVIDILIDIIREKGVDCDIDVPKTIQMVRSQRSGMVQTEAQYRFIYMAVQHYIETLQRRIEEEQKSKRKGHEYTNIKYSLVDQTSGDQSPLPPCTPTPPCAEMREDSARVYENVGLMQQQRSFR
Method: (§1) The von Frey filament test was used to measure the response to mechanical stimuli. Before the test, a plastic case was set onto a metallic mesh, and the pain model rat was put into the plastic case and acclimated to the environment for 5 to 10 minutes until settled. A filament (Semmes-Weinstein Von Frey Anesthesiometer, Muromachi Kikai Co., Ltd.) was applied to the center of the plantar surface of the hindpaw for 3 to 5 seconds, and the threshold for hindpaw withdrawal (g) was measured. After the measurement of the withdrawal thresholds of both the paws was completed, the animal used was identified from the ear tag and then returned to a breeding cage.
(§2) A purified netrin-4 protein (R&D) was dissolved in physiological saline to give a 40 ng/μL netrin-4 solution. […] (Calbiochem), an inhibitor of SHPs, was dissolved at a concentration of 50 mM in sterilized water and kept refrigerated until use. The solution was diluted 50-fold with physiological saline before use. PTPi4 (bis(4-trifluoromethylsulfonamidophenyl)-1,4-diisopropylben zene, Protein Tyrosine Phosphatase Inhibitor IV, Calbiochem), an inhibitor of SHP2, was dissolved at a concentration of 16.4 mM in DMSO (dimethyl sulfoxide, Sigma-Aldrich) and kept refrigerated until use. The solution was diluted to a final concentration of 1 mM with physiological saline before use.
In order to clarify whether the activation of SHP2 is required for the action of netrin-4 on the potentiation of nociceptive response, it was examined whether intrathecal administration of a SHPs inhibitor, NSC87877, or a SHP2 inhibitor, PTPi4 (bis(4-trifluoromethylsulfonamidophenyl)-1,4-diisopropylben zene, Protein Tyrosine Phosphatase Inhibitor IV), would cancel the effect of intrathecal administration of netrin-4. NSC87877 (final concentration: 1 mM) or PTPi4 (final concentration: 1 mM) was mixed with netrin-4 (final concentration: 40 ng/μL , and 10 uL of the mixture was infused from the rear end of the polyethylene tube retained in the medullary cavity. The von Frey filament test was conducted at 12, 24 and 48 hours after the administration to examine the change in withdrawal threshold.

[1] = system: neurons in the dorsal horn of the spinal cord (c-fos); assay: Immunostaining of c-fos in lumbar cord tissue after intrathecal netrin-4; format: in vivo, rat; settings: lumbar cord tissue 48 hours after intrathecal administration, vs physiological saline
Method: (§3) Rat tissue fixation was performed by perfusion under deep anesthesia with intraperitoneal pentobarbital. For the fixation, 0.1 M phosphate buffer was perfused, followed by a 4% PFA solution (a solution of 4% paraformaldehyde (Nacalai Tesque) in 0.1 M phosphate buffer). After the perfusion-fixation, the lumbar enlargement of the spinal cord was dissected, immersed in a 4% PFA solution and further fixed for 6 hours. The 4% PFA solution was replaced with a solution of 30% sucrose (Nacalai Tesque) in 0.1 M phosphate buffer before incubation with agitation at 4° C. for two consecutive days. The lumbar cord tissue was embedded in OCT compound (Sakura Finetek Japan Co., Ltd.), frozen and sliced to a thickness of 20 μm with a cryostat, and the resulting section was mounted onto a slide glass (Matsunsmi Glass Ind., Ltd.). The specimen was immersed in a 5% BSA solution (a solution of 5% BSA (bovine serum albumin, Sigma-Aldrich) in 0.1 M phosphate buffer) at room temperature for 2 hours. The 5% BSA solution was replaced with a 5% BSA solution containing a primary antibody, and the reaction was allowed to proceed at 4° C. for two consecutive days. […] After washing with 0.1 M phosphate buffer 3 times, the specimen was coverslipped with a mounting medium and then observed under a fluorescence microscope. […]

male Wistar rat = assay: von Frey filament test after intrathecal administration of netrin-4 to rats; format: in vivo
Method: as §1, §2
In order to clarify the function of netrin-4 in the spinal cord in an in vivo setting, the change in nociceptive response after intrathecal administration of netrin-4 was examined. First, a polyethylene tube was inserted into the medullary cavity of an 8-week-old male Wistar rat. One week after the intubation, the von Frey filament test was conducted to confirm, the absence of intubation-caused motor dysfunction. Ten microliters of a netrin-4 solution (40 ng/μL) was infused from the rear end of the tube retained in the medullary cavity. Meanwhile, the same volume of physiological saline was administered to each animal of the control group. The von Frey filament test was conducted at 12, 24 and 48 hours after the administration to examine the change in withdrawal threshold.
Ten microliters of a netrin-4 solution (40 ng/μL), a 10% netrin-4 solution (4 ng/μL) , a 1% netrin-4 solution (0.4 ng/μL) or a thermally denatured netrin-4 solution (prepared by heat treatment of a netrin-4 solution (40 ng/μL) at 100° C. for 10 minutes) was administered in the same manner as in Experiment 1, and the degree of the change in withdrawal threshold from before to 24 hours after the administration was calculated.

[2] = system: glial cells or immune cells in the spinal cord; assay: Immunostaining of Iba1, GFAP, CD3ε and CD45R in lumbar cord tissue after intrathecal netrin-4; format: in vivo, rat; settings: lumbar cord tissue 48 hours after intrathecal administration, vs physiological saline
Method: as §3

O=S(=O)(O)c1ccc2cc(N=Nc3cc(S(=O)(=O)O)c4cccnc4c3O)ccc2c1 [NSC87877]
change in withdrawal threshold after administration of mixture with netrin-4 (SHP2): reduction in withdrawal threshold was observed in the group of administration of netrin-4 alone, but not | degree of reduction in withdrawal threshold at 24 hours after administration (SHP2): significantly curbed

CC(C)(c1ccc(NS(=O)(=O)C(F)(F)F)cc1)c1ccc(C(C)(C)c2ccc(NS(=O)(=O)C(F)(F)F)cc2)cc1 [PTPi4, bis(4-trifluoromethylsulfonamidophenyl)-1,4-diisopropylben zene]
change in withdrawal threshold after administration of mixture with netrin-4 (SHP2): reduction in withdrawal threshold was observed in the group of administration of netrin-4 alone, but not | degree of reduction in withdrawal threshold at 24 hours after administration (SHP2): significantly curbed

B1: netrin-4: purified netrin-4 protein (R&D) dissolved in physiological saline (protein, UniProt Q9HB63 19-628, looked up)
Netrin-4: GLSGVAGVSSRCEKACNPRMGNLALGRKLWADTTCGQNATELYCFYSENTDLTCRQPKCDKCNAAYPHLAHLPSAMADSSFRFPRTWWQSAEDVHREKIQLDLEAEFYFTHLIVMFKSPRPAAMVLDRSQDFGKTWKPYKYFATNCSATFGLEDDVVKKGAICTSKYSSPFPCTGGEVIFKALSPPYDTENPYSAKVQEQLKITNLRVQLLKRQSCPCQRNDLNEEPQHFTHYAIYDFIVKGSCFCNGHADQCIPVHGFRPVKAPGTFHMVHGKCMCKHNTAGSHCQHCAPLYNDRPWEAADGKTGAPNECRTCKCNGHADTCHFDVNVWEASGNRSGGVCDDCQHNTEGQYCQRCKPGFYRDLRRPFSAPDACKPCSCHPVGSAVLPANSVTFCDPSNGDCPCKPGVAGRRCDRCMVGYWGFGDYGCRPCDCAGSCDPITGDCISSHTDIDWYHEVPDFRPVHNKSEPAWEWEDAQGFSALLHSGKCECKEQTLGNAKAFCGMKYSYVLKIKILSAHDKGTHVEVNVKIKKVLKSTKLKIFRGKRTLYPESWTDRGCTCPILNPGLEYLVAGHEDIRTGKLIVNMKSFVQHWKPSLGRKVMDILKRECK
number of c-fos-positive cells in the dorsal horn of the spinal cord [1]: increased as compared with that in the control group | change in withdrawal threshold (von Frey filament test) (male Wistar rat; intrathecal 10 μL of 40 ng/μL, 12, 24 and 48 hours after administration): significant reduction in the netrin-4-administered rats versus the control group at 12, 24 and 48 hours after the administration; also recorded: reduction in withdrawal threshold was observed | degree of change in withdrawal threshold from before to 24 hours after administration (male Wistar rat; intrathecal 10 μL of 1% netrin-4 solution (0.4 ng/μL)): no significant reduction was observed | degree of change in withdrawal threshold from before to 24 hours after administration (male Wistar rat; intrathecal 10 μL of 10% netrin-4 solution (4 ng/μL)): reduction in withdrawal threshold was observed | cell morphology and spinal distribution of Iba1, GFAP, CD3ε and CD45R positive cells [2]: No remarkable difference

B2: thermally denatured netrin-4: netrin-4 solution (40 ng/μL) heat-treated at 100° C. for 10 minutes (protein, UniProt Q9HB63 19-628, looked up)
Netrin-4: GLSGVAGVSSRCEKACNPRMGNLALGRKLWADTTCGQNATELYCFYSENTDLTCRQPKCDKCNAAYPHLAHLPSAMADSSFRFPRTWWQSAEDVHREKIQLDLEAEFYFTHLIVMFKSPRPAAMVLDRSQDFGKTWKPYKYFATNCSATFGLEDDVVKKGAICTSKYSSPFPCTGGEVIFKALSPPYDTENPYSAKVQEQLKITNLRVQLLKRQSCPCQRNDLNEEPQHFTHYAIYDFIVKGSCFCNGHADQCIPVHGFRPVKAPGTFHMVHGKCMCKHNTAGSHCQHCAPLYNDRPWEAADGKTGAPNECRTCKCNGHADTCHFDVNVWEASGNRSGGVCDDCQHNTEGQYCQRCKPGFYRDLRRPFSAPDACKPCSCHPVGSAVLPANSVTFCDPSNGDCPCKPGVAGRRCDRCMVGYWGFGDYGCRPCDCAGSCDPITGDCISSHTDIDWYHEVPDFRPVHNKSEPAWEWEDAQGFSALLHSGKCECKEQTLGNAKAFCGMKYSYVLKIKILSAHDKGTHVEVNVKIKKVLKSTKLKIFRGKRTLYPESWTDRGCTCPILNPGLEYLVAGHEDIRTGKLIVNMKSFVQHWKPSLGRKVMDILKRECK
modifications: heat-denatured
notes: netrin-4 solution (40 ng/μL) heat-treated at 100° C. for 10 minutes
degree of change in withdrawal threshold from before to 24 hours after administration (male Wistar rat; intrathecal 10 μL of 40 ng/μL solution heat-treated at 100° C. for 10 minutes): did not reduce the withdrawal threshold
